According to the supplement of paper PMC10065799, “High-throughput profiling of sequence recognition by tyrosine kinases and SH2 domains using bacterial peptide display” (eLife, 2023):

Columns and labels:
[1] = biological target: Fes (UniProt P07332); test: phosphorylation enrichment, bacterial display (enrichment ratio); higher = better substrate or ligand; peptides without Tyr show the background
[2] = biological target: Jak2 (UniProt O60674); test: as above
[3] = tested on: AncSZ; test: as above
[4] = biological target: EPHB1 (UniProt P54762); test: as above
EPHB1, sequence (P54762 whole entry, looked up): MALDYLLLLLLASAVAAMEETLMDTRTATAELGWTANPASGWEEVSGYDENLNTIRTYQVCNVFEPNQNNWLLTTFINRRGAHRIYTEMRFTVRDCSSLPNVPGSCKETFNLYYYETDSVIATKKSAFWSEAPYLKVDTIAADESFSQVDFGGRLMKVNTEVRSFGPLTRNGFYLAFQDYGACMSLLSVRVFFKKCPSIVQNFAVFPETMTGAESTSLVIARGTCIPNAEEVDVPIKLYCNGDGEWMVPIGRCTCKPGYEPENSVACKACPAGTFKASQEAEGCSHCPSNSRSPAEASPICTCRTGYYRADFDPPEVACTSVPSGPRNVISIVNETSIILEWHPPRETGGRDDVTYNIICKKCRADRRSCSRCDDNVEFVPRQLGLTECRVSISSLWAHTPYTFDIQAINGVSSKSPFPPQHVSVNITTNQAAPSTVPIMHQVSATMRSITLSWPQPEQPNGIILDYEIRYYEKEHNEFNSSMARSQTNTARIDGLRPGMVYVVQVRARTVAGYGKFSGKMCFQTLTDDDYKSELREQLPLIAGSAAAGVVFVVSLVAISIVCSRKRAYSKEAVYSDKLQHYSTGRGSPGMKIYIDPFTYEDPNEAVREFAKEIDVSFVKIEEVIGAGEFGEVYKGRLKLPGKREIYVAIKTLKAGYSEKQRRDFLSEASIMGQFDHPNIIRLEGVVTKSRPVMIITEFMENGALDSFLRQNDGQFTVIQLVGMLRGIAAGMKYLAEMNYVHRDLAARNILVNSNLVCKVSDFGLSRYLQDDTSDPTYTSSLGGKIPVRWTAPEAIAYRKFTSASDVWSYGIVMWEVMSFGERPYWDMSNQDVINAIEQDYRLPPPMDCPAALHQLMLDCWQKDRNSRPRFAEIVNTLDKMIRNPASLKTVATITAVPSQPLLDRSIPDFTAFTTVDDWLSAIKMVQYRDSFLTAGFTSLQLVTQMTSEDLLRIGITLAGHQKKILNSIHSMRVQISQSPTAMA

[5] = tested on: c-Src; test: as above
[6] = tested on: c-Abl (mouse); test: as above
[7] = tested on: Fer (mouse); test: as above
[8] = biological target: FGFR1 (UniProt P11362); test: as above
FGFR1, sequence (P11362 whole entry, looked up): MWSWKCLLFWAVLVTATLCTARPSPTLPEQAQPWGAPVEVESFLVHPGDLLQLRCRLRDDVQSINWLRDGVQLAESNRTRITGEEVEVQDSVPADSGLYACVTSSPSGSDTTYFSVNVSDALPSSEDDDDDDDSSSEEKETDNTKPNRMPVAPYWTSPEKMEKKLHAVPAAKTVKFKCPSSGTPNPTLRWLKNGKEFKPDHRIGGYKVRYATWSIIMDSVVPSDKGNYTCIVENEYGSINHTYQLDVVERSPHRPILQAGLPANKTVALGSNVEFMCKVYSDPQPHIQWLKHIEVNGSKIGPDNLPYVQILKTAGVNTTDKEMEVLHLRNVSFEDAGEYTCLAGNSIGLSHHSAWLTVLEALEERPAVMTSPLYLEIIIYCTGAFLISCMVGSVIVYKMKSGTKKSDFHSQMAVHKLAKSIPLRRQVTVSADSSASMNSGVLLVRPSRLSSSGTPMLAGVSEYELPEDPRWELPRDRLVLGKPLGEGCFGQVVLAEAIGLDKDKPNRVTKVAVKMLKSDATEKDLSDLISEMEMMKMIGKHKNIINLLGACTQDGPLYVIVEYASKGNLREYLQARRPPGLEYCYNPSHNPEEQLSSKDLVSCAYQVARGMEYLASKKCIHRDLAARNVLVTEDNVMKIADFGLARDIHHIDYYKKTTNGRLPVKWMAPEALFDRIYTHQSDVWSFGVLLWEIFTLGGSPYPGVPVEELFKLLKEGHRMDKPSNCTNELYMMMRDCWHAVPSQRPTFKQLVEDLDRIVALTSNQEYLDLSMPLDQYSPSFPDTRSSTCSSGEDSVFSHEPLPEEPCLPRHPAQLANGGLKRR

[9] = biological target: MERTK (UniProt Q12866); test: as above
[10] = biological target: FGFR3 (UniProt P22607); test: as above
FGFR3, sequence (P22607 whole entry, looked up): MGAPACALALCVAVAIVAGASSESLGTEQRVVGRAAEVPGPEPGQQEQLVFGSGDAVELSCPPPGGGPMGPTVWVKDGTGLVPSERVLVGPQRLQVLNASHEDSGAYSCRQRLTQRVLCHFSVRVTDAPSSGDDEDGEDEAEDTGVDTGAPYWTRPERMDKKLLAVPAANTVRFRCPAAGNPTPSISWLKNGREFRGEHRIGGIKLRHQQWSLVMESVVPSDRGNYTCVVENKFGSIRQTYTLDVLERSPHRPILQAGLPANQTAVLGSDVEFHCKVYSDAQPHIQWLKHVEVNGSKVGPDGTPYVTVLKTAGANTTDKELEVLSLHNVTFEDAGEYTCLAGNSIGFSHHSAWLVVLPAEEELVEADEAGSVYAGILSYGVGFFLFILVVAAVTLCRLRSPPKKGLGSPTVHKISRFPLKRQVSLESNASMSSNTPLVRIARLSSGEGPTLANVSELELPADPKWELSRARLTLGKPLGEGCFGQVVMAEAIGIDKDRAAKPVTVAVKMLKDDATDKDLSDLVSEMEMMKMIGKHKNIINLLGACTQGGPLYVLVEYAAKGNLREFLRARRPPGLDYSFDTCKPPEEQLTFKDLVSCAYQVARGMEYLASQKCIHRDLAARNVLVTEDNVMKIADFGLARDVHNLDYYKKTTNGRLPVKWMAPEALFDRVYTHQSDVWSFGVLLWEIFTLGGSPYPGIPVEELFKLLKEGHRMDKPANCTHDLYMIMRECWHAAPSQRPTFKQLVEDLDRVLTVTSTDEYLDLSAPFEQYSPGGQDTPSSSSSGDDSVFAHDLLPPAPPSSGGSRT

[11] = biological target: Fyn (UniProt P06241); test: as above
[12] = biological target: EPHB2 (UniProt P29323); test: as above
EPHB2, sequence (P29323 whole entry, looked up): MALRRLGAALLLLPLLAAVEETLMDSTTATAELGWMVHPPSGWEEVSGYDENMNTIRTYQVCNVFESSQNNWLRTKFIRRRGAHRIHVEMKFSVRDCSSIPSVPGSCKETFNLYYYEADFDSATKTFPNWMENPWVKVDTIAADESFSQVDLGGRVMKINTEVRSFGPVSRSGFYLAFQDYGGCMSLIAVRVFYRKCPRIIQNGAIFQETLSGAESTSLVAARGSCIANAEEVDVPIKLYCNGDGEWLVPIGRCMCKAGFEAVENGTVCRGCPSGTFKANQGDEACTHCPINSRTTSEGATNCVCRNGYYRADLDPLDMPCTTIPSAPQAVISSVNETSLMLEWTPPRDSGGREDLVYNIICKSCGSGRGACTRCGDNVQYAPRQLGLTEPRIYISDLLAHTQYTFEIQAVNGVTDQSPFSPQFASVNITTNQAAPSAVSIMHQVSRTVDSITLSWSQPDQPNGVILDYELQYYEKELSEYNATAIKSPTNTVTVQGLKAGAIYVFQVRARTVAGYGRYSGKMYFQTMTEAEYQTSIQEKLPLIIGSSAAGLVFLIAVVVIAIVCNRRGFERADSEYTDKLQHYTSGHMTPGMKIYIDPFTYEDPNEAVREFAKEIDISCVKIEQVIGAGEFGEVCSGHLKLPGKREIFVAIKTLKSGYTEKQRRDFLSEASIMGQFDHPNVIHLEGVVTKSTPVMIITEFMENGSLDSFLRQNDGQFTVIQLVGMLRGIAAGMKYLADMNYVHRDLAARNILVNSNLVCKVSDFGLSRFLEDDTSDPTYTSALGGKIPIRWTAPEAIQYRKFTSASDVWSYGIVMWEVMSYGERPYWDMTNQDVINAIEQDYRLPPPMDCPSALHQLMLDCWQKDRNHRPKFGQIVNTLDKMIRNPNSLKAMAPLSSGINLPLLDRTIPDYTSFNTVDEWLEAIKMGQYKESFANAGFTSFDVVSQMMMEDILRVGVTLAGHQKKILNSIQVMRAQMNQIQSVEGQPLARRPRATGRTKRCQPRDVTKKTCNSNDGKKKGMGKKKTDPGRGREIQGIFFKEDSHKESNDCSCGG

[13] = biological target: Hck (UniProt P08631); test: as above
[14] = biological target: c-Src SH2; test: SH2 binding enrichment of the phosphorylated peptide, bacterial display (enrichment ratio); higher = better substrate or ligand; peptides without Tyr show the background
[15] = biological target: Grb2 SH2 (UniProt P62993); test: as above
Grb2 SH2, sequence (P62993 whole entry, looked up): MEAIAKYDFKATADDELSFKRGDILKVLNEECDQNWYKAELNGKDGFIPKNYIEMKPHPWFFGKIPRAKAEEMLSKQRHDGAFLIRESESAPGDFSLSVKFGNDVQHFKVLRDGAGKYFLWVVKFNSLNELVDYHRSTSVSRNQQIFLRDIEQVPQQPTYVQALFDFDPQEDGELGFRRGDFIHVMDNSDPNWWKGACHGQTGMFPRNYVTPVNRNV

[16] = biological target: SHP2-C SH2; test: as above
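For SH2 binding enrichment of the phosphorylated peptide, bacterial display in this document: peptide library displayed on the E. coli surface as eCPX fusions, selected cells deep-sequenced, score is each peptide's frequency after selection divided by its frequency in the input.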
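For phosphorylation enrichment, bacterial display in this document: 11-residue human phosphosite peptides and single-mutation variants displayed on the E. coli surface, counted by deep sequencing, each peptide's frequency after selection divided by its frequency in the unselected input library; frequency after pTyr selection over input frequency; kinase dosed for 20-30% of maximal phosphorylation in three min.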

Jak2, sequence (O60674 whole entry, looked up): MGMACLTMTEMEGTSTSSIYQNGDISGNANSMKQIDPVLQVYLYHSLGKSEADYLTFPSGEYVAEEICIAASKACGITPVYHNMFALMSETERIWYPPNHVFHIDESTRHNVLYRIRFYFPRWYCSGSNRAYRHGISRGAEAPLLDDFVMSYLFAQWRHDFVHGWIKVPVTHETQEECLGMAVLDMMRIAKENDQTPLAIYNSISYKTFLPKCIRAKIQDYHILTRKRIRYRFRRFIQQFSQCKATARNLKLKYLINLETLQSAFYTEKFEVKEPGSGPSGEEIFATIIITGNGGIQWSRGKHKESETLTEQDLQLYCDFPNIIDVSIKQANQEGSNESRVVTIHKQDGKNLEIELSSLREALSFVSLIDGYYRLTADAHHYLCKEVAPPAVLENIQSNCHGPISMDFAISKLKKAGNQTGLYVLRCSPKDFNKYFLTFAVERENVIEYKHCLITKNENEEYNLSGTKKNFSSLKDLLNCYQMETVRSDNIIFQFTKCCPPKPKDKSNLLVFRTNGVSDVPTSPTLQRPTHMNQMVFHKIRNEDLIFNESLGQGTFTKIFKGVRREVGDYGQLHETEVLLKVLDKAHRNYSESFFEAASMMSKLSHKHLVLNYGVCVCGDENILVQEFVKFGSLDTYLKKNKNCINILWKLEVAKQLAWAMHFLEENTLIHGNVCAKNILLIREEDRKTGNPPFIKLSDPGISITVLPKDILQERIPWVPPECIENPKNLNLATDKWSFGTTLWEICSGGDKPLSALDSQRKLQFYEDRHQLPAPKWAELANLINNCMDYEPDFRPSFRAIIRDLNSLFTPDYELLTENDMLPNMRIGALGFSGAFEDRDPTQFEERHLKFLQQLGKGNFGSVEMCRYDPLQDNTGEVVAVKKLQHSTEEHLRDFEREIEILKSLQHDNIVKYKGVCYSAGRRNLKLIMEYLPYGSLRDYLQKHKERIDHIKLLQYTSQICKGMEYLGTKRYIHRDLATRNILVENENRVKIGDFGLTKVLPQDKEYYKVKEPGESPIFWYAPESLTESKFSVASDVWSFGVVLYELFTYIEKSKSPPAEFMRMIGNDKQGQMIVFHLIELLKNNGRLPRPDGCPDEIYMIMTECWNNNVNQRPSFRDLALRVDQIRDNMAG

Sequence	phosphorylation enrichment [1]	phosphorylation enrichment [2]	phosphorylation enrichment [3]	phosphorylation enrichment [4]	phosphorylation enrichment [5]	phosphorylation enrichment [6]	phosphorylation enrichment [7]	phosphorylation enrichment [8]	phosphorylation enrichment [9]	phosphorylation enrichment [10]	phosphorylation enrichment [11]	phosphorylation enrichment [12]	phosphorylation enrichment [13]	SH2 binding enrichment [14]	SH2 binding enrichment [15]	SH2 binding enrichment [16]
FRQLPYCPSVE [CTNND2_Y508_Q507P_YF]	1.39	1.08	1.25	0.647	0.499	0.837	0.603	0.526	0.486	1.2	0.538	0.748	0.776	0.458	0.722	0.472
GTYEDYVEGLR [MYL6_Y89]	1.22	0.885	1.31	1.31	1.43	0.748	0.579	0.617	0.513	0.743	1.14	1.19	0.726	0.766	0.777	0.645
SSVAGYACLAF [MVD_Y131_A128V_YF]	1.21	0.961	0.903	0.562	0.519	0.949	0.511	0.516	0.631	0.792	0.478	0.537	0.556	1.76	0.834	10.7
LNERHYGALIG [BPGM_Y92]	0.609	0.571	0.534	0.319	0.639	0.461	0.459	0.42	0.536	0.47	0.514	0.469	0.561	0.613	0.871	0.74
NLMPAYYKCIQ [CYP21A2_Y190]	1.28	1.34	1.09	0.708	0.51	1.24	0.626	0.57	0.57	0.866	0.432	0.496	0.507	0.522	0.596	0.444
DRFANYIEKVR [DES_Y122]	0.759	1.02	0.628	0.523	0.425	0.728	0.41	0.419	0.367	0.508	0.434	0.424	0.42	0.473	0.769	0.743
SFGMVYEGNAR [INSR_Y1038]	0.775	0.672	0.629	0.479	0.966	0.616	0.377	0.41	0.323	0.474	0.526	0.413	0.784	0.536	0.879	0.798
TRSYDYMEGED [FGF7_Y58_G62E]	1.47	1.51	1.41	0.711	0.574	0.919	0.645	5.52	0.591	0.869	0.607	0.634	0.549	10.4	0.977	1.05
VFLARYGPAWR [CYP2D6_Y124]	1.21	0.793	1.12	0.405	0.603	0.52	0.413	0.468	0.472	0.501	0.434	0.598	0.548	0.572	0.948	0.703
DVQNEYDSNHC [ZFYVE16_Y36_A35E]	1.07	0.701	1.01	0.508	0.444	0.671	0.414	0.512	0.477	0.665	0.59	0.513	0.576	0.541	1.1	0.692
EIRTQYEAMAS [GFAP_Y242]	0.778	0.682	0.691	0.45	0.472	0.676	0.483	0.638	0.415	0.523	0.55	0.577	0.534	2.62	0.702	1.14
FGFPGYQSKHF [TIMP3_Y177_YF]	0.651	0.5	0.534	0.422	0.401	0.574	0.406	0.47	0.405	0.499	0.521	0.398	0.496	0.588	1.07	0.75
IKSSIYDNRNE [ARAP2_Y380_K384N]	0.584	0.466	0.505	0.413	0.399	0.397	0.33	0.443	0.405	0.388	0.464	0.502	0.696	0.608	0.682	0.593
KDFTKYVAYIE [KDM4B_Y31_N29T]	1.07	0.921	0.864	0.651	0.523	0.679	0.434	0.604	0.465	0.734	0.541	0.584	0.558	0.608	0.966	2.42
LPHVIYCRLWR [SMAD2_Y128]	0.814	0.822	1.05	1.76	2.05	1.47	0.434	0.414	0.871	0.555	1.66	0.758	2.31	0.679	0.991	0.723
RGEEPYTKKAL [TTC21B_Y160_K157E]	0.991	0.473	0.715	0.413	0.383	0.487	0.552	0.771	0.491	0.714	0.481	0.476	0.719	0.4	0.542	0.634
IEDNEYTAREG [HCK_Y411]	1.33	1.33	1.56	0.637	0.67	1.08	0.515	0.722	0.519	0.759	0.576	0.491	0.588	0.539	0.803	0.666

Sequence	phosphorylation enrichment [1]	phosphorylation enrichment [2]	phosphorylation enrichment [3]	phosphorylation enrichment [4]	phosphorylation enrichment [5]	phosphorylation enrichment [6]	phosphorylation enrichment [7]	phosphorylation enrichment [8]	phosphorylation enrichment [9]	phosphorylation enrichment [10]	phosphorylation enrichment [11]	phosphorylation enrichment [12]	phosphorylation enrichment [13]	SH2 binding enrichment [14]	SH2 binding enrichment [15]	SH2 binding enrichment [16]
DVCKNYAEAKD [ALB_Y343]	1.19	1.14	1.07	0.541	0.55	0.804	0.495	0.569	0.448	0.702	0.509	0.561	0.571	1.02	0.739	0.618
EEEFEYMNRRR [ERBB3_Y1199_D1194E_YF]	1.24	1.19	1.59	0.693	0.608	0.808	0.408	0.554	0.724	0.767	0.515	0.532	0.569	0.649	1.37	0.671
LLKANYELLNA [POLR3A_Y714_K713N]	0.865	0.857	0.975	1.28	0.814	0.949	0.551	0.457	0.976	0.78	0.431	0.804	0.459	1.51	0.834	0.973
GNYSGYDDAWD [POLR1C_Y36]	1.32	1.29	1.62	6.73	0.586	0.964	0.742	0.723	0.637	0.931	0.597	5.87	0.578	5.84	0.833	0.595
SECCKYKIDNP [OSMR_Y689]	0.786	0.658	0.642	0.464	0.46	0.539	0.407	0.756	0.419	0.488	0.411	0.416	0.381	0.472	0.94	0.393
KENITYMKREQ [L1TD1_Y24]	1.05	0.828	0.827	0.498	0.58	0.703	0.431	0.462	0.453	0.554	0.443	0.514	0.554	0.498	0.809	0.692
HSGIYYKPESL [L2HGDH_Y103]	0.984	2.35	1.59	6.97	3.78	27.1	0.613	5.66	9.79	4.95	4.78	6.24	6.44	0.601	0.925	0.563
EAEPFYCSLRD [NPHS1_Y1139_R1140C_YF]	1.36	1.17	1.54	1.19	2.86	0.878	2.19	0.668	1.67	0.896	2.66	1.27	2.54	0.668	0.941	0.616
HFGCVYRGTLL [MET_Y1093_H1094R]	1.66	1.77	1.44	1.04	1.97	1.28	0.702	0.884	0.573	1.06	0.862	0.87	0.607	0.565	0.868	0.963
HRNGMYGLHQD [SGSH_Y89_Q85R]	0.428	0.626	0.515	0.39	0.389	0.502	0.432	0.485	0.396	0.421	0.49	0.51	0.294	0.631	0.939	0.751
DLQDENDFKCK [STAT1_Y170_Y170N]	1.86	1.55	1.42	0.621	0.498	0.812	0.612	0.568	0.415	0.853	0.548	0.737	0.602	0.43	0.897	0.642
CTTIHKNYMCN [TP53_Y234_Y234K]	0.792	0.702	0.733	0.515	0.404	0.603	0.406	0.499	0.484	0.56	0.395	0.503	0.409	0.866	1.05	1.16
HSFQCYGRNEA [ENTPD3_Y262]	1.28	0.594	1.23	0.875	0.417	0.736	0.759	0.761	0.585	1.18	0.711	1.04	0.797	0.529	0.945	0.82
RIAFQYGDTDL [MYBPC3_Y340_V342D]	1.24	0.784	1.1	0.743	0.381	0.735	0.689	0.703	0.544	0.737	0.81	0.825	0.432	0.577	0.954	0.742
TKFRNYLIPNG [CYP2C8_Y379_K383N]	0.679	0.536	0.68	0.527	0.484	0.631	0.394	0.458	0.495	0.502	0.553	0.736	0.432	0.462	0.946	0.724
SVVVPYEPPEV [TP53_Y220]	1.16	1	1.25	0.532	0.459	0.798	0.556	0.548	0.531	0.748	0.502	0.645	0.55	0.888	1.01	1.11
